Test results as given in paper PMC10023570, “Essential protein P116 extracts cholesterol and other indispensable lipids for Mycoplasmas” (Nature Structural & Molecular Biology, 2023).

B1: P116 (30–957), ectodomain of P116 (MPN_213) from Mycoplasma pneumoniae (domain or fragment)
chain: NKTHQVEHESEQSDFQDIRFGLNSVKLPKAQPAAATRITVENGTDKLVNYKSSPQQLFLAKNALKDKLQGEFDKFLSDAKAFPALTADLQEWVDQQLFNPNQSFFDLSAPRSNFTLSSDKKASLDFIFRFTNFTESVQLLKLPEGVSVVVDSKQSFDYYVNASAQKLLVLPLSLPDYTLGLNYMFDHITLNGKVVNKFSFNPFKTNLNLAFSNVYNGVDVFEAQKNLVGKGKYLNTHVKAEDVKKDVNANIKNQFDIAKIIAELMGKALKEFGNQQEGQPLSFLKVMDKVKEDFEKLFNLVRPGLGKFVKDLIQSSSQAENKITVYKLIFDNKKTILNLLKELSIPELNSSLGLVDVLFDGITDSDGLYERLQSFKDLIVPAVKTNEKTAALSPLIEELLTQKDTYVFDLIQKHKGILTNLLKNFLADFQKSTPFMADQVAIFTELFDNEGAFDLFGEADFVDKIAELFLTKRTVKNGEKIETKDSLLVTSLKSLLGEKVAALGDLLDSYIFKNELLNRSVEVAKAEAKDTKGATDYKKEQAKALKKLFKHIGENTLSKTNLDKITLKEVKNTENVELEETETTLKVKKLDVEYKVELGNFEIKNGLIKAMLEFLPDTKDLETTLDKLLFKGESYKAMKDKYIKEGFPGYGWAKGVVPGAFESIENTFKSAIDKTKSIRDLFGDMLFGNDLSSVKETDSFITLGGSFDIKYGGENLNVLPAYYSLINSEIGYQIIGVDTTIDATKVKVELKNKEYKGKSPAINGQVKLSQSFFNVWTNMFDSITKQIFQKKYEFKDNIQVFARNEDNTSRLELDISDPEQRVIPFAFVDGFGIQLKAVDKNITKEAGNTEPKSPVIQLYEALNKEKDQKQQSKQSPKQLDTKTQLGYLLKLGDNWSKDDYKSLIDDTIINNNYLEASFNSKITVDRLG
notes: source: E. coli B834 (DE3), purified (HisTrap, Superdex 200)

Experiments:
[1] = target: P116 W681A (M. pneumoniae) (UniProt P75556); test: SEC-MALS; Superose 6 10/300 GL column, DAWN HELEOS II MALS detector and Optilab T-REX refractive index detector
[2] = target: the molecule itself; test: as above

Molecule	rate of dimers to monomers (dimers:monomers) [1]	stoichiometry N [2]
P116 W681A (from UniProt P75556 30-957) (domain or fragment)	0.25	–
B1	–	2
